B1: Hairpin Ribozyme (parent)
chain: GUCCUCUUUCACGUGCGCGUGAAAGAGAGAAGUGAACCAGAGAAACACACGUUGUGGUAUAUUACCUGGUA

Variants of: B1
Test: self-cleavage, relative activity (ratio to wild type); higher = more cleavage; co-transcriptional

| Variant | self-cleavage |
| --- | --- |
| G27C A39G | 0.0932 |
| A26U U52G | 0.442 |
| G25A G27A | 0.148 |
| A26C C66U | 0.315 |
| A26U U62G | 0.141 |
| G25C C37G | 0.225 |
| A26C C37A | 0.156 |
| A26C C37G | 0.373 |
| A26C U70G | 0.509 |
| G25A G69C | 0.228 |
| G25U U60G | 0.288 |
| G25U U60C | 0.885 |
| A26C G32U | 0.196 |
| A26U A47U | 0.0699 |
| A26U G69A | 0.203 |
| A26C | 0.708 |
| A26U | 0.683 |
| A26G | 0.901 |
| G27C A45U | 0.202 |
| G27C A45G | 0.19 |
| G27A A31G | 0.221 |
| G27A A31U | 0.153 |
| G25C U33C | 0.319 |
| G25C U33G | 0.197 |

| Variant | self-cleavage |
| --- | --- |
| A26G U52C | 0.822 |
| A26G U52G | 0.721 |
| A26C G56U | 0.23 |
| G25C A49U | 0.21 |
| G25C A49G | 0.255 |
| G25U C46U | 0.157 |
| G25U C46A | 0.205 |
| A26U A30U | 0.11 |
| A26G A43U | 0.121 |
| A26C A71G | 1.01 |
| G25U C38G | 0.0734 |
| A26U C46G | 0.317 |
| G27A C48A | 0.178 |
| G27A C48U | 0.183 |
| G27A A43U | 0.052 |
| G25U A35C | 0.691 |
| A26G C46G | 0.19 |
| A26U C50U | 0.261 |
| G25C C50A | 0.214 |
| G27A U58A | 0.176 |
| G27C A59U | 0.16 |
| G25C A31U | 0.143 |
| G25C A31C | 0.168 |
| A26G A45C | 0.135 |

| Variant | self-cleavage |
| --- | --- |
| A26G U60G | 0.717 |
| G27A U53G | 0.518 |
| G27A U53C | 0.64 |
| A26G C50G | 0.211 |
| G25U U67A | 0.145 |
| A26U C66U | 0.276 |
| A26U C66A | 0.146 |
| G25C G69A | 0.149 |
| A26C A43C | 0.159 |
| A26G A47G | 0.161 |
| G27A G68C | 0.215 |
| G27A G68U | 0.184 |
| G27A G69C | 0.198 |
| G25U A59U | 0.237 |
| G25A C46U | 0.116 |
| G25C A35G | 0.578 |
| G27A U60C | 0.657 |
| G25A C66U | 0.239 |
| A26G G27C | 0.215 |
| G25C G40A | 0.0978 |
| G27A C66A | 0.204 |
| A26C C48U | 0.173 |
| A26C C48A | 0.045 |
| A26G C66G | 0.353 |

| Variant | self-cleavage |
| --- | --- |
| G27A G40C | 0.104 |
| A26G A49C | 0.148 |
| A26G A49U | 0.288 |
| G25C A61U | 0.213 |
| G25U A49U | 0.136 |
| G25C G68A | 0.192 |
| A26C U55A | 0.194 |
| A26G G54A | 0.605 |
| G27C A30G | 0.172 |
| A26C U63G | 0.0806 |
| G25U U33G | 0.168 |
| G25C G32U | 0.0809 |
| G25C G32A | 0.0816 |
| A26U C65U | 0.161 |
| A26U C65A | 0.701 |
| G25U U55G | 0.195 |
| G25U U55A | 0.216 |
| G27A G42C | 0.145 |
| G27A U70G | 0.227 |
| G27A A30G | 0.0562 |
| G27A A30C | 0.141 |
| A26C A44U | 0.193 |
| A26G U55G | 0.153 |
| A26G U55C | 0.206 |

| Variant | self-cleavage |
| --- | --- |
| G25U U58G | 0.439 |
| A26U G40C | 0.0803 |
| A26G A28U | 0.491 |
| A26G A28C | 0.358 |
| G25U G32C | 0.187 |
| G25U G32U | 0.0897 |
| G25C C46U | 0.0896 |
| G27A C38U | 0.2 |
| G27A G57C | 0.184 |
| G27A A61U | 0.155 |
| A26C G51A | 0.67 |
| G25A U33A | 0.235 |
| G25A U33C | 0.0884 |
| G27A A64U | 0.174 |
| A26C G29U | 0.109 |
| A26C G29C | 0.136 |
| A26C G29A | 0.149 |
| G25C G51A | 0.591 |
| A26U A41C | 0.776 |
| A26U G32U | 0.202 |
| A26U C38U | 0.409 |
| A26U C38G | 0.109 |
| G25U G68C | 0.243 |
| G25U G68U | 0.159 |

| Variant | self-cleavage |
| --- | --- |
| A26G C37A | 0.268 |
| A26C A45U | 0.182 |
| A26C A45G | 0.136 |
| G27A G32C | 0.226 |
| G27A G32A | 0.0917 |
| A26U U55G | 0.281 |
| A26U U55C | 0.23 |
| G25A C48G | 0.0903 |
| A26C A61C | 0.0459 |
| A26G G68A | 0.309 |
| G25C U58A | 0.308 |
| G25C U58C | 0.559 |
| A26C G54A | 0.511 |
| A26C G54U | 0.314 |
| A26U U33C | 0.141 |
| A26U U33A | 0.148 |
| A26U U67C | 0.176 |
| A26G U33A | 0.135 |
| A26C A30G | 0.0971 |
| A26C A30U | 0.165 |
| G25C U60C | 0.673 |
| G27A C37G | 0.15 |
| A26C U53C | 0.741 |
| G27C C46A | 0.0983 |

| Variant | self-cleavage |
| --- | --- |
| A26G U63G | 0.183 |
| G25A U53C | 0.659 |
| G25A U53A | 0.472 |
| A26U G57C | 0.123 |
| A26U G57A | 0.184 |
| G27A C50U | 0.124 |
| A26U A44C | 0.0769 |
| A26U A44G | 0.288 |
| A26U A44U | 0.141 |
| G25U G51U | 0.671 |
| G25U G51A | 0.613 |
| G27A A28U | 0.393 |
| G25U C50A | 0.283 |
| A26C G68C | 0.147 |
| G25U G69U | 0.165 |
| G25U G69C | 0.0669 |
| G27A A39C | 0.2 |
| G25U C66U | 0.315 |
| G25A U55G | 0.159 |
| G25A G51C | 0.479 |
| G27A G51A | 0.337 |
| G27A G51U | 0.458 |
| G25U A39C | 0.336 |

Reference: the RNAGym collection of RNA variant scans (doi:10.7554/elife.80360)
